In this assay the target is T1, GST-nsp13 (Glutathione S-Transferase-tagged nsp13 of SARS-CoV) (SARS-CoV, UniProt P0C6X7 5302-5902).
T1 construct: also called SARS-CoV helicase; non-structural protein 13; not shown: GST, N-terminal, kept
Kind of assay: pull-down. Particulars: both partners purified.

The values below come from PMC3352918, “Mechanism of Nucleic Acid Unwinding by SARS-CoV Helicase” (PLoS ONE, 2012).

B1: nsp12-H6 (C-terminal hexahistidine containing nsp12, SARS-CoV RNA-dependent RNA polymerase) (enzyme)
chain: SADASTFLNRVCGVSAARLTPCGTGTSTDVVYRAFDIYNEKVAGFAKFLKTNCCRFQEKDEEGNLLDSYFVVKRHTMSNYQHEETIYNLVKDCPAVAVHDFFKFRVDGDMVPHISRQRLTKYTMADLVYALRHFDEGNCDTLKEILVTYNCCDDDYFNKKDWYDFVENPDILRVYANLGERVRQSLLKTVQFCDAMRDAGIVGVLTLDNQDLNGNWYDFGDFVQVAPGCGVPIVDSYYSLLMPILTLTRALAAESHMDADLAKPLIKWDLLKYDFTEERLCLFDRYFKYWDQTYHPNCINCLDDRCILHCANFNVLFSTVFPPTSFGPLVRKIFVDGVPFVVSTGYHFRELGVVHNQDVNLHSSRLSFKELLVYAADPAMHAASGNLLLDKRTTCFSVAALTNNVAFQTVKPGNFNKDFYDFAVSKGFFKEGSSVELKHFFFAQDGNAAISDYDYYRYNLPTMCDIRQLLFVVEVVDKYFDCYDGGCINANQVIVNNLDKSAGFPFNKWGKARLYYDSMSYEDQDALFAYTKRNVIPTITQMNLKYAISAKNRARTVAGVSICSTMTNRQFHQKLLKSIAATRGATVVIGTSKFYGGWHNMLKTVYSDVETPHLMGWDYPKCDRAMPNMLRIMASLVLARKHNTCCNLSHRFYRLANECAQVLSEMVMCGGSLYVKPGGTSSGDATTAYANSVFNICQAVTANVNALLSTDGNKIADKYVRNLQHRLYECLYRNRDVDHEFVDEFYAYLRKHFSMMILSDDAVVCYNSNYAAQGLVASIKNFKAVLYYQNNVFMSEAKCWTETDLTKGPHEFCSQHTMLVKQGDDYVYLPYPDPSRILGAGCFVDDIVKTDGTLMIERFVSLAIDAYPLTKHPNQEYADVFHLYLQYIRKLHDELTGHMLDMYSVMLTNDNTSRYWEPEFYEAMYTPHTVLQ
notes: also called SARS-CoV polymerase; SARS-CoV RdRp
Consider B1, for which the binding result is on record as “binds”.
